# Like-named read-outs stand apart in the source and are kept apart here.
# How the values were obtained:
# [1] = target: T1, full-length human PD-1 expressed on cells (human, UniProt Q15116 25-288); experiment: cell-based or functional assay
# [2] = target: T2, Recombinant human PD-1 human-FC Chimera (R&D Systems) (human, UniProt Q15116 25-170); experiment: ELISA, coated recombinant human PD-1 human-Fc chimera
# T2 construct: Bought construct; also called recombinant human-PD-1 extracellular domain; hPD-1 (ELISA); not shown: human Fc part of the bought chimera
# T2 sequence (Q15116 25-170, change not shown): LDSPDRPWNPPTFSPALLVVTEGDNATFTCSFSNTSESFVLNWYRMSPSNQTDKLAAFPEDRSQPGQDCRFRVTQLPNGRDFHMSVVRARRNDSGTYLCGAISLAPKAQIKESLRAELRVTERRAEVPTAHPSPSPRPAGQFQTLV
# Description: (§1) The binding potency of chimeric and humanized anti-PD-1 antibodies to recombinant human-PD-1 extracellular domain was determined by ELISA. Recombinant human PD-1 human-FC Chimera (R&D Systems) was coated on 384-well MaxiSorp™ flat bottom plates (Nunc) at a concentration of 0.625 μg/mL in PBS (Vendor) for 60 minutes at room temperature. Coated plates were washed three times with PBS, 0.1% Tween (PBS-T), blocked by incubation with PBS, 2% BSA, 0.05% Tween for 60 minutes at room temperature, and washed for an additional three times with PBS-T. Anti-PD-1-antibodies were added in PBS, 0.5% BSA, 0.05% Tween (ELISA buffer) in concentrations ranging from 1,000 to 0.06 ng/mL or 2,500 to 0.15 ng/mL and the plate was incubated for 60 minutes at room temperature. […] After 3 washes with PBS-T, horseradish peroxidase coupled goat-anti-human-IgG (Fab′)₂ fragment (AbD Serotec; Cat. No. STAR126P) was added in ELISA buffer at a dilution of 1:5,000. The plate was incubated for 60 minutes at room temperature, and washed 6 times with PBS-T before TMB solution (Thermo Fisher Scientific) was added. After 10 minutes HCl was added and the absorbance at wavelengths of 450 and 620 nm recorded using a Tecan Infinite M1000 reader. Data was fitted with a 4-parameter logistic model and EC50 values calculated using GraphPad Prism 8.4.3 (GraphPad Software, San Diego, CA, USA).
# [3] = target: T2, Recombinant human PD-1 human-FC Chimera …; experiment: as above; remark: listed apart in the source
# Description: as §1
# [4] = target: T1, full-length human PD-1 expressed on …; experiment: cell binding, HEK-293 cells expressing full-length human PD-1, CellInsight CX5 imaging
# Description: (§2) Binding of chimeric and humanized anti-PD-1 antibodies to cell surface expressed hPD-1 was analyzed using HEK-293 cells ectopically expressing full-length human-PD1 (BPS Biosciences; Cat. No. 60680). Cell cultures were grown in MEM containing 10% FCS, ix MEM NEAA, 1 mM Na pyruvate and 100 μg/mL Hygromycin B. Hygromycin B was omitted when cells were plated for testing antibody binding. 1,000 cells in 20 μL medium were seeded per well in black 384-well cell-culture treated plates with clear bottom and were incubated for 2 hours at 37° C. and 5% CO₂. Anti-PD-1 antibodies were added in 5 μL medium to final concentrations ranging from 1,000 to 0.06 ng/mL or 620 to 0.45 ng/mL. […] After an 18 hours incubation at 37° C. and 5% CO₂, plates were washed once with 25 μL PBS, 0.05% Tween 20 (cell wash buffer) and Alexa-Fluor-488-conjugated AffiniPure goat-anti-human-IgG F(ab′)₂ fragment (Vendor) was added at a concentration of 0.8 μg/mL in 20 μL medium. Plates were incubated for 4 hours at 37° C. and 5% CO₂ in the dark, washed once with 25 μL cell wash buffer and incubated for 10 minutes with 20 μL medium containing 5 μg/ml Hoechst (Invitrogen). Cell-associated immunofluorescent signals were recorded using a CellInsight CX5 high content imager device (Thermo Fisher). Data was fitted with a 4-parameter logistic model and EC50 values calculated using GraphPad Prism 8.4.3.
# [5] = target: T1, full-length human PD-1 expressed on …; experiment: as above; remark: listed apart in the source
# Description: as §2
# [6] = target: T1, full-length human PD-1 expressed on …; experiment: flow cytometry, K562 cells electroporated with full-length human PD-1 mRNA, dilutions of RiboMab-containing supernatant
# Description: 20×10⁶ cells K562 cells growing in log-phase were used for electroporation of full-length human PD-1. Cells in 250 μL X-Vivo 15 medium (LONZA Technologies, cat. no. BE02-060F) were combined in 4 mm gap cuvettes with 10 μg human PD-1-encoding IVT-mRNA. Cells were immediately electroporated with a BTX ECM830 (BTX Harvard Apparatus) with the following setting: 200 V, 3 pulses, 8 ms.
# Binding of RiboMabs to K562 cells expressing PD-1 was analyzed by flow cytometry. […] Cells were washed twice with FACS buffer, re-suspended in 60 μL FACS buffer and analyzed on a BD FACSCanto™ II flow cytometer (BD Biosciences). Binding curves were analyzed by non-linear regression (log(agonist) vs. response—variable slope (four parameters)) using GraphPad Prism V9.1.0 software.
# [7] = target: T1, full-length human PD-1 expressed on …; experiment: cell-based or functional assay; remark: listed apart in the source
# T1 sequence (Q15116 25-288 limits assumed): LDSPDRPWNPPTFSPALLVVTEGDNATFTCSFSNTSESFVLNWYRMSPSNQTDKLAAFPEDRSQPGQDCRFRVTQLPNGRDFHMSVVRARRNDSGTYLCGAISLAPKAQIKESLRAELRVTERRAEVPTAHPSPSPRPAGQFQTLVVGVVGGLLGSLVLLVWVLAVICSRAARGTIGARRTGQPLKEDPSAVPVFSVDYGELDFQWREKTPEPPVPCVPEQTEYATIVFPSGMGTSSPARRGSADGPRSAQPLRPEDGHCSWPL
Binder,hPD-1 blockade assay IC50 [1] [ng/mL],EC50 [2] [ng/mL],EC50 [3] [ng/mL],EC50 [4] [ng/mL],EC50 [5] [ng/mL],fold difference in EC50 values (RiboMab-19-0233 against RiboMab-19-0202) [6] [fold],hPD-1 blockade assay IC50 [7] [ng/mL]
"MAB-19-0233 (antibody, human IgG1, V domains shown, Chimeric rabbit/human antibody, human IgG1 constant parts with L234A and L235A (LALA)) VH: QSLEESGGDLVKPGASLTLTCKASGIDFSSVYYMCWVRQAPGKGLEWIACIYVGSSGVSYYATWAKGRFTISKTSSTTVTLQMTSLTAADTATYFCARAGYVGAVYVTLTRLDLWGQGTLVTVSS VL: AAVLTQTPSPVSAAVGGTVTISCQSSQSIYTNNDLAWYQQKPGQPPKLLIYDASKLASGVPSRFSGSGSGTQFTLTISGVQSDDAATYYCLGGYDDDADNAFGGGTEVVVK",657,6.3,7.2,16.8,2.4,–,–
"MAB-19-0202 (antibody, V domains shown, Chimeric rabbit/human antibody: rabbit variable regions cloned N-terminal of human IgG1 / kappa constant parts with L234A and L235A (LALA)) VH: QSVEESGGRLVTPGTPLTLTCTVSGFSLYSYNMGWVRQAPGKGLEYIGIISGGTIGHYASWAKGRFTISKTSSTTVDLKMTSLTTEDTATYFCARAFYDDYDYNVWGPGTLVTVSS VL: AAVLTQTPSPVSAAVGGTVTISCQSSQSVYGNNQLSWYQQKPGQPPKLLIYQASKLETGVPSRFKGSGSGTQFTLTISDLESDDAATYYCAGGYSSSSDTTFGGGTEVVVK",324,3.5,4,–,0.5,–,56
"MAB-19-0223 (antibody, human IgG1, V domains shown, Chimeric rabbit/human antibody, human IgG1 constant parts with L234A and L235A (LALA); also called chimeric anti-PD-1 MAB-19-0223) VH: QEHLVESGGGLVQPEGSLTLTCKASGIDFSDTYWICWVRQPPGKGLEWIGCIGIGGSGSTYYAGWAKGRFTISKTSSTTVTLQMTTLTDADTATYFCATEIPYFNVWGPGTLVTVSS VL: AQVLTQTPSSVSAAVGGTVTINCQSSQSVYNKNWLAWYQQKPGQPPKLLIYDASKLTSGVPSRFKGSGSGTQFTLTISGVQSDDAATYYCQGTYDVNGWLVAFGGGAEVVVK",913,6.6,–,7,–,–,–
"MAB-19-0603 (antibody, IgG1, V domains shown, Recombinant humanized hIgG1-LALA antibody) VH: QVQLVESGGGLVQPGTSLRLSCSVSGFSLYSYNMGWVRQAPGKGLEYIGIISGGTIGHYASWAKGRFTISRDTSKTTLYLQMNSLTTEDTATYFCARAFYDDYDYNVWGPGTLVTVSS VL: DIVMTQSPSSLSASVGDRVTITCQSSQSVYGNNQLSWYQQKPGKAPKLLIYQASKLETGVPSRFSGSGSGTDFTLTISSLQPEDFATYYCAGGYSSSSDTTFGGGTKVVIK",–,–,3.3,–,2.8,–,85
"MAB-19-0208 (antibody, human IgG1, V domains shown, Chimeric rabbit/human antibody, human IgG1 constant parts with L234A and L235A (LALA); also called chimeric anti-PD-1 MAB-19-0208) VH: QSVEESGGRLVTPGTPLTLTCTVSGFSLSRYYISWVRQAPGKGLEWIGSFYADSGTTWYATWVKGRFTFSTASSTTVDLKMTSPTTEDTATYFCARNSGDAQFNIWGPGTLVTVSS VL: AAVLTQTPSPVSAAVGGTVSISCQSSESVYNKNQLCWYQQKPGQRPKLLIYDASTLASGVPSRFSGSGSGTQFTLTISDVQSDAAATYYCAGGYSVTSDTTFGGGTEVVVR",870,4,–,13.9,–,–,–
"MAB-19-0217 (antibody, human IgG1, V domains shown, Chimeric rabbit/human antibody, human IgG1 constant parts with L234A and L235A (LALA); also called chimeric anti-PD-1 MAB-19-0217) VH: QSVEESGGRLVTPGTPLTLTCTVSGFSLSRYYMTWVRQAPGKGLEWIGIIYPDTGTTWYASWVKGRFTFSKTSSTTVDLKMTSPTTEDTATYFCARSTTDAQFNIWGPGTLVTVSS VL: AAVLTQTPSPVSAAVGGTVSISCQSSENVYTDNQLCWYQQKPGQRPKLLIYDASTLASGVPSRFSGSGSGTQFTLTISGVQSDDAATYYCAGGYSTTSDTTFGGGTEVVVK",720,9.2,–,6.3,–,–,–

# Second part, the binder after the results:
hPD-1 blockade assay IC50 [1] [ng/mL],EC50 [2] [ng/mL],EC50 [3] [ng/mL],EC50 [4] [ng/mL],EC50 [5] [ng/mL],fold difference in EC50 values (RiboMab-19-0233 against RiboMab-19-0202) [6] [fold],hPD-1 blockade assay IC50 [7] [ng/mL],Binder
–,–,–,–,–,~2.5,–,"RiboMab-19-0233 (antibody, V domains shown, Tested as HEK293T/17 supernatant, concentration not determined) VH: QSLEESGGDLVKPGASLTLTCKASGIDFSSVYYMCWVRQAPGKGLEWIACIYVGSSGVSYYATWAKGRFTISKTSSTTVTLQMTSLTAADTATYFCARAGYVGAVYVTLTRLDLWGQGTLVTVSS VL: AAVLTQTPSPVSAAVGGTVTISCQSSQSIYTNNDLAWYQQKPGQPPKLLIYDASKLASGVPSRFSGSGSGTQFTLTISGVQSDDAATYYCLGGYDDDADNAFGGGTEVVVK"
–,–,8.8,–,5.7,–,368,"MAB-19-0598 (antibody, IgG1, V domains shown, Recombinant humanized hIgG1-LALA antibody) VH: QVQLVESGGDVVKPGRSLRLSCKASGIDFSSVYYMCWVRQAPGKGLEWIACIYVGSSGVSYYATWAKGRFTISRDTSTSTLFLQMNSLRAGDTATYYCARAGYVGAVYVTLTRLDLWGQGTLVTVSS VL: DIQMTQSPSSLSASVGGTVTITCQSSQSIYTNNDLAWYQQKPGQPPKLLIYDASKLASGVPSRFSGSGSGTQFTLTISSLQSEDAATYYCLGGYDDDADNAFGGGTEVVVK"
–,–,14.6,–,9.5,–,311,"MAB-19-0594 (antibody, IgG1, V domains shown, Recombinant humanized hIgG1-LALA antibody) VH: EVQLEESGGGLVKPGGSLRLSCAASGIDFSSVYYMCWVRQAPGKGLEWVSCIYVGSSGVSYYATWAKGRFTISRDNSKNTLYLQMNSLRAEDTAVYYCARAGYVGAVYVTLTRLDLWGRGTLVTVSS VL: DIQMTQSPSSLSASVGGTVTITCQSSQSIYTNNDLAWYQQKPGQPPKLLIYDASKLASGVPSRFSGSGSGTQFTLTISSLQSEDAATYYCLGGYDDDADNAFGGGTEVVVK"
–,–,7.5,–,3.6,–,188,"MAB-19-0583 (antibody, IgG1, V domains shown, Recombinant humanized hIgG1-LALA antibody) VH: QVQLVESGGDVVKPGRSLRLSCKASGIDFSSVYYMCWVRQAPGKGLEWIACIYVGSSGVSYYATWAKGRFTISRDTSTSTLFLQMNSLRAGDTATYYCARAGYVGAVYVTLTRLDLWGQGTLVTVSS VL: DVVMTQSPSTVSASVGDRVTLTCQSSQSIYTNNDLAWYQQKPGQPPKLLIYDASKLASGVPDRFSGSGSGTDFTLTISSLQADDFATYYCLGGYDDDADNAFGQGTKVEIK"
–,–,7.7,–,2.8,–,63,"MAB-19-0608 (antibody, IgG1, V domains shown, Recombinant humanized hIgG1-LALA antibody) VH: QVQLVESGGGLVQPGTSLRLSCSVSGFSLYSYNMGWVRQAPGKGLEYIGIISGGTIGHYASWAKGRFTISRDTSKTTLYLQMNSLTTEDTATYFCARAFYDDYDYNVWGPGTLVTVSS VL: DIQMTQSPSTLSASVGDRVTITCQSSQSVYGNNQLSWYQQKPGKAPKLLIYQASKLETGVPSRFSGSGSGTQFTLTISSLQPDDFASYYCAGGYSSSSDTTFGQGTKVEIK"
–,–,8,–,1.7,–,57,"MAB-19-0618 (antibody, IgG1, V domains shown, Recombinant humanized hIgG1-LALA antibody) VH: QVQLVESGGGLVQPGTSLRLSCSVSGFSLYSYNMGWVRQAPGKGLEYIGIISGGTIGHYASWAKGRFTISRDTSKTTLYLQMNSLTTEDTATYFCARAFYDDYDYNVWGPGTLVTVSS VL: AIQLTQSPSSLSASVGGTVTITCQSSQSVYGNNQLSWYQQKPGQPPKLLIYQASKLETGVPSRFRGSGSGTQFTLTISSLQSEDFATYYCAGGYSSSSDTTFGGGTEVVVK"
–,–,4.4,–,1.2,–,93,"MAB-19-0613 (antibody, IgG1, V domains shown, Recombinant humanized hIgG1-LALA antibody) VH: QVQLVESGGGLVQPGTSLRLSCSVSGFSLYSYNMGWVRQAPGKGLEYIGIISGGTIGHYASWAKGRFTISRDTSKTTLYLQMNSLTTEDTATYFCARAFYDDYDYNVWGPGTLVTVSS VL: DIQMTQSPSSLSASVGDRVTITCQSSQSVYGNNQLSWYQKKPGQAPKLLIYQASKLETGVPSRFSGSGSGTDFTLTISSLQPEDFATYYCAGGYSSSSDTTFGPGTKVDIK"

# From patent publication US20230399403A1 (BIONTECH, published 2023)
